B1: Syncytin-2 (Homo sapiens), P60508 (parent)
chain: MGLLLLVLILTPSLAAYRHPDFPLLEKAQQLLQSTGSPYSTNCWLCTSSSTETPGTAYPASPREWTSIEAELHISYRWDPNLKGLMRPANSLLSTVKQDFPDIRQKPPIFGPIFTNINLMGIAPICVMAKRKNGTNVGTLPSTVCNVTFTVDSNQQTYQTYTHNQFRHQPRFPKPPNITFPQGTLLDKSSRFCQGRPSSCSTRNFWFRPADYNQCLQISNLSSTAEWVLLDQTRNSLFWENKTKGANQSQTPCVQVLAGMTIATSYLGISAVSEFFGTSLTPLFHFHISTCLKTQGAFYICGQSIHQCLPSNWTGTCTIGYVTPDIFIAPGNLSLPIPIYGNSPLPRVRRAIHFIPLLAGLGILAGTGTGIAGITKASLTYSQLSKEIANNIDTMAKALTTMQEQIDSLAAVVLQNRRGLDMLTAAQGGICLALDEKCCFWVNQSGKVQDNIRQLLNQASSLRERATQGWLNWEGTWKWFSWVLPLTGPLVSLLLLLLFGPCLLNLITQFVSSRLQAIKLQTNLSAGRHPRNIQESPF
partner: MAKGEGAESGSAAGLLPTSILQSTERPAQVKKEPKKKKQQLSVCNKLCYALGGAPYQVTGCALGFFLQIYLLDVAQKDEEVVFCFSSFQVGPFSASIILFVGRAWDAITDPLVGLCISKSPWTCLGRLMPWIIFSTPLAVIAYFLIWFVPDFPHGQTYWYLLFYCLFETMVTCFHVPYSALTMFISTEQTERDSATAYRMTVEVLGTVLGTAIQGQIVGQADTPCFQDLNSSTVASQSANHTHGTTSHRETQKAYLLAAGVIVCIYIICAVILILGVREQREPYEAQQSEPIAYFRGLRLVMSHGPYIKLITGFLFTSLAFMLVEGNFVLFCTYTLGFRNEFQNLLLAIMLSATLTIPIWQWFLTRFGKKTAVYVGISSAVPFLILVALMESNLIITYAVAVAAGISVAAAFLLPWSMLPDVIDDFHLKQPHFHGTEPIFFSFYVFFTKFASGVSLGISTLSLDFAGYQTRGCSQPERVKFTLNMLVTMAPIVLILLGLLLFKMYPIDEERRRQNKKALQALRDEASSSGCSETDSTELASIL

Variants of: B1
Conditions: with nls1_human MFSD2A

Variant	effect of a mutation on the interaction
MGLLLLVLILTPSLAAYRHPDFPLLEKAQQLLQSTGSPYSTNCWLCTSSSTETPGTAYPASPREWTSIEAELHISYRWDPNLKGLMRPANSLLSTVKQDFPDIRQKPPIFGPIFTNINLMGIAPICVMAKRKQGTNVGTLPSTVCNVTFTVDSNQQTYQTYTHNQFRHQPRFPKPPNITFPQGTLLDKSSRFCQGRPSSCSTRNFWFRPADYNQCLQISNLSSTAEWVLLDQTRNSLFWENKTKGANQSQTPCVQVLAGMTIATSYLGISAVSEFFGTSLTPLFHFHISTCLKTQGAFYICGQSIHQCLPSNWTGTCTIGYVTPDIFIAPGNLSLPIPIYGNSPLPRVRRAIHFIPLLAGLGILAGTGTGIAGITKASLTYSQLSKEIANNIDTMAKALTTMQEQIDSLAAVVLQNRRGLDMLTAAQGGICLALDEKCCFWVNQSGKVQDNIRQLLNQASSLRERATQGWLNWEGTWKWFSWVLPLTGPLVSLLLLLLFGPCLLNLITQFVSSRLQAIKLQTNLSAGRHPRNIQESPF [N133Q]	decreasing interaction strength
MGLLLLVLILTPSLAAYRHPDFPLLEKAQQLLQSTGSPYSTNCWLCTSSSTETPGTAYPASPREWTSIEAELHISYRWDPNLKGLMRPANSLLSTVKQDFPDIRQKPPIFGPIFTNISLMGIAPICVMAKRKNGTNVGTLPSTVCNVTFTVDSNQQTYQTYTHNQFRHQPRFPKPPNITFPQGTLLDKSSRFCQGRPSSCSTRNFWFRPADYNQCLQISNLSSTAEWVLLDQTRNSLFWENKTKGANQSQTPCVQVLAGMTIATSYLGISAVSEFFGTSLTPLFHFHISTCLKTQGAFYICGQSIHQCLPSNWTGTCTIGYVTPDIFIAPGNLSLPIPIYGNSPLPRVRRAIHFIPLLAGLGILAGTGTGIAGITKASLTYSQLSKEIANNIDTMAKALTTMQEQIDSLAAVVLQNRRGLDMLTAAQGGICLALDEKCCFWVNQSGKVQDNIRQLLNQASSLRERATQGWLNWEGTWKWFSWVLPLTGPLVSLLLLLLFGPCLLNLITQFVSSRLQAIKLQTNLSAGRHPRNIQESPF [N118S]	increasing interaction strength
MGLLLLVLILTPSLAAYRHPDFPLLEKAQQLLQSTGSPYSTNCWLRTSSSTETPGTAYPASPREWTSIEAELHISYRWDPNLKGLMRPANSLLSTVKQDFPDIRQKPPIFGPIFTNINLMGIAPICVMAKRKNGTNVGTLPSTVCNVTFTVDSNQQTYQTYTHNQFRHQPRFPKPPNITFPQGTLLDKSSRFCQGRPSSCSTRNFWFRPADYNQCLQISNLSSTAEWVLLDQTRNSLFWENKTKGANQSQTPCVQVLAGMTIATSYLGISAVSEFFGTSLTPLFHFHISTCLKTQGAFYICGQSIHQCLPSNWTGTCTIGYVTPDIFIAPGNLSLPIPIYGNSPLPRVRRAIHFIPLLAGLGILAGTGTGIAGITKASLTYSQLSKEIANNIDTMAKALTTMQEQIDSLAAVVLQNRRGLDMLTAAQGGICLALDEKCCFWVNQSGKVQDNIRQLLNQASSLRERATQGWLNWEGTWKWFSWVLPLTGPLVSLLLLLLFGPCLLNLITQFVSSRLQAIKLQTNLSAGRHPRNIQESPF [C46R]	decreasing interaction strength

Next, values leading:

effect of a mutation on the interaction	Variant
disrupting interaction strength	MGLLLLVLILTPSLAAYRHPDFPLLEKAQQLLQSTGSPYSTNCWLCTSSSTETPGTAYPASPREWTSIEAELHISYRWDPNLKGLMRPANSLLSTVKQDFPDIRQKPPIFGPIFTNINLMGIAPICVMAKRKNGTNVGTLPSTVCNVTFTVDSNQQTYQTYTHNQFRHQPRFPKPPNITFPQGTLLDKSSRFCQGRPSSCSTRNFWFRPADYNQCLQISNLSSTAEWVLLDQTRNSLFWENKTKGANQSQTPCVQVLAGMTIATSYLGISAVSEFFGTSLTPLFHFHISTCLKTQGAFYICGQSIHQCLPSNWTGTCTIGYVTPDIFIAPGNLSLPIPIYGNSPLPRVRRAIHFIPLLAGLGILAGMGTGIAGITKASLTYSQLSKEIANNIDTMAKALTTMQEQIDSLAAVVLQNRRGLDMLTAAQGGICLALDEKCCFWVNQSGKVQDNIRQLLNQASSLRERATQGWLNWEGTWKWFSWVLPLTGPLVSLLLLLLFGPCLLNLITQFVSSRLQAIKLQTNLSAGRHPRNIQESPF [T367M]
decreasing interaction strength	MGLLLLVLILTPSLAAYRHPDFPLLEKAQQLLQSTGSPYSTNCWLCTSSSTETPGTAYPASPREWTSIEAELHISYRWDPNLKGLMRPANSLLSTVKQDFPDIRQKPPIFGPIFTNINLMGIAPICVMAKRKNGTNVGTLPSTVCNVTFTVDSNQQTYQTYTHNQFRHQPRFPKPPNITFPQGTLLDKSSRFCQGRPSSCSTRNFWFRPADYNQCLQISNLSSTAEWVLLDQTRNSLFWENKTKGANQSQTPCVQVLAGMTIATSYLGISAVSEFFGTSLTPLFHFHISTCLKTQGAFYICGQSIHQCLPSNWTGTCTIGYVTPDIFIAPGQLSLPIPIYGNSPLPRVRRAIHFIPLLAGLGILAGTGTGIAGITKASLTYSQLSKEIANNIDTMAKALTTMQEQIDSLAAVVLQNRRGLDMLTAAQGGICLALDEKCCFWVNQSGKVQDNIRQLLNQASSLRERATQGWLNWEGTWKWFSWVLPLTGPLVSLLLLLLFGPCLLNLITQFVSSRLQAIKLQTNLSAGRHPRNIQESPF [N332Q]
decreasing interaction strength	MGLLLLVLILTPSLAAYRHPDFPLLEKAQQLLQSTGSPYSTNCWLCTSSSTETPGTAYPASPREWTSIEAELHISYRWDPNLKGLMRPANSLLSTVKQDFPDIRQKPPIFGPIFTNINLMGIAPICVMAKRKNGTNVGTLPSTVCNVTFTVDSNQQTYQTYTHNQFRHQPRFPKPPNITFPQGTLLDKSSRFCQGRPSSCSTRNFWFRPADYNQCLQISNLSSTAEWVLLDQTRNSLFWENKTKGANQSQTPCVQVLAGMTIATSYLGISAVSEFFGTSLTPLFHFHISTCLKTQGAFYICGQSIHQCLPSQWTGTCTIGYVTPDIFIAPGNLSLPIPIYGNSPLPRVRRAIHFIPLLAGLGILAGTGTGIAGITKASLTYSQLSKEIANNIDTMAKALTTMQEQIDSLAAVVLQNRRGLDMLTAAQGGICLALDEKCCFWVNQSGKVQDNIRQLLNQASSLRERATQGWLNWEGTWKWFSWVLPLTGPLVSLLLLLLFGPCLLNLITQFVSSRLQAIKLQTNLSAGRHPRNIQESPF [N312Q]

— IntAct's records for PubMed 26853155
